{"source": "paper PMC2847220", "about": "(Nucleic Acids Research, 2009)", "proteins": {"B1": {"name": "Tpa1Δ20, N-terminal truncated form (residues 21–644) of S. cerevisiae Tpa1 (domain or fragment, UniProt P40032 21-644, looked up)", "chain": "LEEDKIKGMFNPKIWDKTFQDGLKKEIEDSQPYNWGTIHELVNDDLLRAVRKEIETEIHFTKKETDIYRVNQSGDLANLSGLDWDDLSRLPNLFKLRQILYSKQYRDFFGYVTKAGKLSGSKTDMSINTYTKGCHLLTHDDVIGSRRISFILYLPDPDRKWKSHYGGGLRLFPSILPNVPHSDPSAKLVPQFNQIAFFKVLPGFSFHDVEEVKVDKHRLSIQGWYHIPQVGEEGYIPGEEEAWVRNNTSTLAQIESNVLEDFEFPKDERNILSFHEVKHFEKMLKGDAGAKTDNTPKESMTSVISDSVKLSEAEFTYLSQYISPEHLSSKGIEKLQKQFVENSSLQIESFLNDDKSELLKKVIKQKELEQECPYHSKDVKAPWKTAIPPHKARYLYIDGKEYRNFQTEADILEALNNNDLPNFQFTKDAIKIISDASGNSRENNFDAELALIDLAVFHKSTIFKKYLALLTSLCPVSEQILIRRFRPGMDFTLATKCRFNELLKSNPDIIDAVLEGTLCLTPSAGWESGELGGYELYMMDDDEDNKQYLKEDVEDASVYRADDSGDSVLINDPPAWNTFNLVLRDESVLEFVKYVSWSAKSSRWDVKMKWDVKSCDEDGQEDEA"}}, "target": "the molecule itself", "experiment": "AUC", "data": [{"protein": "B1", "values": [{"measurement": "stoichiometry N", "value": 2}]}]}
